# Results as given in patent US20180117168A1, “CYCLODEXTRIN-BASED POLYMERS FOR THERAPEUTIC DELIVERY” (priority 2013, published 2018).
# Columns and labels:
# [1] = test system: Adjuvant-Induced Arthritis (AIA) in Lewis Rat; test: Lewis rat adjuvant-induced arthritis (AIA) model; assay type: in vivo; conditions: for % Max Change in Paw Volume / % Max Change in body weight: day of maximum in brackets; for Spleen weight with treatment (in words): regimens of Table 4
# Text: Animal and Facility: 75 female Lewis Rats at the age of 6 weeks were allowed to acclimate for 7 days in the animal facility (Cephrim Biosciences, Inc., Wellesley, Mass.). Animal housing, handling and procedures followed protocols and guidelines approved by the Institutional Animal Care and Use Committee (IACUC) of Cephrim Biosciences, Inc.
# In vivo Adjuvant-Induced Arthritis (AIA) in Lewis Rat: The adjuvant used for induction of arthritis was purchased from Chondrex Inc. (Redmond, Wash.), a suspension that contains 10 mg/mL of heat-killed mycobacteria in incomplete Freund's adjuvant. On the day of induction, the rat was first anesthetized and 0.05 mL of the Complete Freund's Adjuvant (CFA) was subcutaneously injected into the sub-plantar area of the rat footpad. The needle was inserted just under the skin of the footpad pointing toward the ankle to maximize the immune response to the CFA. The rat body weight, paw volumes and clinical assessments were monitored closely after the induction. Once the secondary swelling appeared around the opposite rat paws or ankles, the rats were assigned in one of 10 groups (N=5) according to the severity of arthritis (e.g. the paw volume) and the treatments started at that time (see Table 4).
# Rat arthritis was evaluated for body weight, paw volumes and clinical score once every other day. Special care including placing water and food gel supplements in the cages were given for those rats once it became difficult to move around due to their hind limb arthritis. The severity of arthritis was scored by visual inspection. Three un-injected paws were scored on a scale of 0 to 4, where 0=normal; 1, only on few digits; 2, on the paw; 3, on the ankle and 4, all swelling below ankle. The maximum score was 12. In addition to daily scores, the maximum arthritis index (MAI) was calculated at the end of the study for each rat by adding the greatest score recorded for each paw. Foot swelling was also determined objectively by measuring paw volume with a plethysmograph for the secondary arthritis (un-injected foot) and thickness using a caliper for the primary arthritis (injected foot).
# Treatment Preparation: Dexamethasone stock was first dissolved in dimethyl sulfoxide at 1 mg/ml and kept in dark at room temperature. The corresponding dosing solution was prepared prior to each treatment by a 1:10 fold dilution with phosphate buffered saline (PBS). The dexamethasone dosing solution was given to the rats subcutaneously (SC) at 10 mL/kg. Tofacitinib (unconjugated parent drug) was added in 5% methylcellulose at 1 mg/mL and 0.25% of Tween-80. A homogeneous dosing suspension of tofacitinib was prepared using a mechanical homogenizer. The tofacitinib suspension was prepared daily and was given to rats by an oral gavage at 10 mL/kg. CDP-hexanoate-tofacitinib conjugate nanoparticles were kept in 4° C. until the end of the dosing period. They were given to their respective groups of rats by subcutaneous route at 10 mL/kg.
# [2] = Tofacitinib dosed 5 mg PO twice daily; cited from earlier work
# [3] = Particle size of formulated nanoparticles (particle sizer); assay type: physicochemical; conditions: nanoparticles in water after TFF and 0.22 µm filtration
# Procedure: (§1) The reaction mixture was worked up by precipitating the polymer in 15 volumes of acetone (150 mL). The polymer precipitated out immediately as a lump. The solution was stirred for 30 minutes and then the slightly turbid supernatant was decanted. The polymer precipitate was stirred in […] for 30 minutes and then dissolved 70 mL of water to prepare a ˜10 mg/mL polymer concentration. The polymer dissolved smoothly in water and the polymer solution was then filtered through a 0.22 p.m PES membrane. This solution was then washed using TFF (3×30K capsules) using 10 volumes of ultrapure water at pH 3. After diafiltration, the solution was concentrated down to approximately half the volume and the concentrated solution was filtered with a 0.22 p.m cellulose nitrate membrane. The filtered solution was analyzed for particle size using a particle sizer and Tofacitinib concentration using HPLC.
# as §1, with “in 90” for “70”
# [4] = Pharmacokinetic study, plasma levels of free and bound Tofacitinib by HPLC/MS/MS; assay type: in vivo, Mice (C57 B16 strain); design: Cl: unit not given here; conditions: mice; for AUC / Cl / Vd / t1/2: analyte: Conjugate, single bolus 3 mg/kg; for Half-life for conjugate after SC dosing relative to the IV dose / Bioavailability via SC, of the IV based on AUC: 3 mg/kg SC vs IV; for IV AUC relative to the drug dosed PO alone: conjugate IV vs unconjugated tofacitinib PO
# Procedure: Mice (C57 B16 strain) were treated by single bolus injection of each linker at 3 mg/kg. Blood samples were collected from individual animals and plasma made using EDTA as an anticoagulant. Levels of free and bound Tofacitinib were measured in the plasma samples using HPLC/MS/MS.
# [5] = Drug release and stability of CDP-linker-Tofacitinib conjugate nanoparticles in PBS; assay type: physicochemical; conditions: 1x PBS pH 7.4, 37° C.; for In vitro release of free drug (24 hrs in PBS at 37° C.): free drug/conjugated drug
# Procedure: The drug release and stability method experiments were run using the following CDP-linker-Tofacitinib nanoparticles: CDP-Gly-Tofac (prepared by the method described in Example 5) and CDP-Hex-Tofac) (prepared by the method described in Example 10).
# A 2.5 mg/mL (with regard to polymer) solution of each CDP-linker-Tofac nanoparticle was prepared in lx PBS buffer (pH=7.4). An aliquot of 150 μL was transferred into corresponding HPLC vials. A vial containing each CDP-linker-Tofac nanoparticle in PBS pH 7.4 for each designated time point was placed in a water bath at 37° C. Samples were mixed using a water bath shaker at 100 rpm during the experiments. At each designated time point, a vial was removed for each CDP-linker-Tofac nanoparticle and processed for HPLC using a sample preparation procedure.
# To prepare a sample for HPLC analysis, each vial containing 150 μL of sample was mixed with 75 μL of 0.1% formic acid in acetonitrile. If there was any precipitated material in the vial, the contents were also stirred to dissolve the precipitate. If the sample was still opaque, an additional 25 μL of 0.1% formic acid in acetonitrile was added. HPLC analysis was used to determine the amount of free Tofacitinib and the amount of conjugated Tofacitinib in the sample for a given time point.
# For the HPLC analysis at each time point, the peak areas of all relevant peaks from the chromatograms were retrieved and the concentration of free and conjugated Tofacitinib was calculated. The sample degradation was calculated based on the percentage of the amount of conjugated drug with regard to the initial starting point of the experiment (at t=0). The drug release was calculated based on the sum of free Tofacitinib and Tofacitinib main degradants at each time point.
Spleen weight with treatment (in words) ([1]; AIA rats),Compound,Dv50 [3],Dv90 [3],Particle PDI [3],Zavg [3],"AUC ([4]; route IV, plasma)","Cl ([4]; route IV, plasma)","Vd ([4]; route IV, plasma)","t1/2 ([4]; route IV, plasma)","AUC ([4]; route SC, plasma)","Cl ([4]; route SC, plasma)","Vd ([4]; route SC, plasma)","t1/2 ([4]; route SC, plasma)",Half-life for conjugate after SC dosing relative to the IV dose [4],IV AUC relative to the drug dosed PO alone [4],In vitro degradation of conjugate (24 hrs in PBS at 37° C.) [5],In vitro release of free drug (24 hrs in PBS at 37° C.) [5],other results
declined,"C[C@@H]1CCN(C(=O)CC#N)C[C@@H]1N(C)c1ncnc2[nH]ccc12 [Tofacitinib, reference compound]",,,,,,,,,,,,,,,,,"AVE Spleen Weight ([1]; 10 mg/kg, bid x 14, po): 0.392 g; MAI (maximum arthritis index) ([1]; 10 mg/kg, bid x 14, po): 30; % Max Change in Paw Volume ([1]; 10 mg/kg, bid x 14, po): +30.7% (D14); % Max Change in body weight ([1]; 10 mg/kg, bid x 14, po): −9.0% (d13); half-life [2]: 3 to 5 h"
,CDP-Tofacitinib Ethylene Glycol Monoglycinate [CDP-Glycine-Tofacitinib],11.4 nm,19.8 nm,0.418,26.23 nm,2061.85 µg·h/mL,0.04,2.6 mL,50 h,1254.162 µg·h/mL,0.06,2.4 mL,28 h,doubling of half-life,~1000 ×,15.23%,9.45%,"Bioavailability via SC, of the IV based on AUC [4]: 60%; Free levels, of the circulating conjugate ([4]; 3 mg/kg, plasma): less than 1%; In vitro release of free drug (24 hrs in PBS at 37° C.) ([5]; listed as CDP-Glycine-Tofac): 9.45%"
declined,"C[C@@H]1C[C@H]2[C@@H]3CCC4=CC(=O)C=C[C@]4(C)[C@@]3(F)[C@@H](O)C[C@]2(C)[C@@]1(O)C(=O)CO [Dexamethasone, reference compound]",,,,,,,,,,,,,,,,,"AVE Spleen Weight ([1]; 1 mg/kg, q2d x 7, sc): 0.253 g; MAI (maximum arthritis index) ([1]; 1 mg/kg, q2d x 7, sc): 29; % Max Change in Paw Volume ([1]; 1 mg/kg, q2d x 7, sc): +26.5% (d13); % Max Change in body weight ([1]; 1 mg/kg, q2d x 7, sc): −13.5% (d18)"

Compound,Spleen weight with treatment (in words) ([1]; AIA rats),Dv50 [3],Dv90 [3],Particle PDI [3],Zavg [3],"AUC ([4]; route IV, plasma)","Cl ([4]; route IV, plasma)","Vd ([4]; route IV, plasma)","t1/2 ([4]; route IV, plasma)","AUC ([4]; route SC, plasma)","Cl ([4]; route SC, plasma)","Vd ([4]; route SC, plasma)","t1/2 ([4]; route SC, plasma)",Half-life for conjugate after SC dosing relative to the IV dose [4],IV AUC relative to the drug dosed PO alone [4],In vitro degradation of conjugate (24 hrs in PBS at 37° C.) [5],In vitro release of free drug (24 hrs in PBS at 37° C.) [5],other results
CDP-Tofacitinib Ethylene Glycol Monohexanoate [CDP-Hexanoate-Tofacitinib],maintained,12.8 nm,21.7 nm,0.218,20.64 nm,1030.865 µg·h/mL,0.07,2.4 mL,23.2 h,569.866 µg·h/mL,0.132,8.9 mL,47 h,increased by two fold,~1000 ×,3.54%,2.06%,"Bioavailability via SC, of the IV based on AUC ([4]; 3 mg/kg): 60%; Bioavailability via SC, of the IV based on AUC ([4]; listed as CDP-Hexanoate-Tofacitinib Conjugate, 3 mg/kg): approximately 60%; Levels of released drug, of the total ([4]; 3 mg/kg, plasma): approximately 5%; AVE Spleen Weight ([1]; 0.3 mg/kg, q7d x 2, sc): 0.643 g; MAI (maximum arthritis index) ([1]; 0.3 mg/kg, q7d x 2, sc): 41; % Max Change in Paw Volume ([1]; 0.3 mg/kg, q7d x 2, sc): +48.0% (d16); % Max Change in body weight ([1]; 0.3 mg/kg, q7d x 2, sc): −12.9% (d16); AVE Spleen Weight ([1]; 1 mg/kg, q7d x 2, sc): 0.642 g; MAI (maximum arthritis index) ([1]; 1 mg/kg, q7d x 2, sc): 46; % Max Change in Paw Volume ([1]; 1 mg/kg, q7d x 2, sc): +45.2% (d16); % Max Change in body weight ([1]; 1 mg/kg, q7d x 2, sc): −14.5% (d18); Paw volume as a percent of the initial paw volume (Day 1) ([1]; 3 mg/kg q7d×2 sc, after two cycles (28 days), FIG. 16): below 100%; AVE Spleen Weight ([1]; 3 mg/kg, q7d x 2, sc): 0.606 g; MAI (maximum arthritis index) ([1]; 3 mg/kg, q7d x 2, sc): 39; % Max Change in Paw Volume ([1]; 3 mg/kg, q7d x 2, sc): +42.5% (d16); % Max Change in body weight ([1]; 3 mg/kg, q7d x 2, sc): −9.3% (d13); Cumulative dose giving similar efficacy, of the cumulative dose of unconjugated tofacitinib ([1]; 3 mg/kg/week vs. 140 mg/kg/week): 2%; Ankle swelling after treatment, of initial paw volume ([1]; AIA rats, level of healthy rats): 100%; In vitro release of free drug (24 hrs in PBS at 37° C.) ([5]; listed as CDP-Hex-Tofac): 2.06%"
